The target of assay [1] is anti-VEGF/ANG2 antibody (IgG1 subclass with mutations P329G/L234A/L235A/I253A/H310A/H435A) (human) [IgG part: P01857]. In words: sandwich ELISA in serum; M1.3.17-Bi capture on SA plate; tracer anti-human kappa M1.7.10-Dig; analyte 2.5 ng/mL.
For assay [2] the target is unchanged. Description: sandwich ELISA in serum; M1.3.17-Bi capture on SA plate; tracer anti-human kappa M1.7.10-Dig; analyte 5 ng/mL. A general note: ELISA stands for enzyme-linked immunosorbent assay.
The target in assay [3] is anti-VEGF/ANG2 antibody (IgG1 subclass with mutations P329G/L234A/L235A/I253A/H310A/H435A) [IgG part: P01857]. Description: bridging ELISA; biotinylated and digoxigenylated anti-VEGF/ANG2 antibody bridged by M1.3.17 at 7.8125 ng/mL.
Assay [4] deals with anti-VEGF/ANG2 antibody (IgG1 subclass with mutations P329G/L234A/L235A/I253A/H310A/H435A) (human) [IgG part: P01857]. In words: sandwich ELISA in serum; M1.3.17-Bi capture on SA plate; tracer anti-human kappa M1.7.10-Dig; analyte 0.625 ng/mL.
The target in assay [5] is anti-VEGF/ANG2 antibody (IgG1 subclass with mutations P329G/L234A/L235A/I253A/H310A/H435A) [IgG part: P01857]. In words: bridging ELISA; biotinylated and digoxigenylated anti-VEGF/ANG2 antibody bridged by M1.3.17 at 15.625 ng/mL.
Assay [6] has the same target. Description: bridging ELISA; biotinylated and digoxigenylated anti-VEGF/ANG2 antibody bridged by M1.3.17 at 31.25 ng/mL.
Assay [7] shares this target. Description: bridging ELISA; biotinylated and digoxigenylated anti-VEGF/ANG2 antibody bridged by M1.3.17 at 3.90625 ng/mL.
The target is the same in assay [8]. In words: sandwich ELISA in serum; capture M1.3.17, tracer M1.7.24; anti-VEGF/ANG2 antibody 625 ng/mL.
The target is the same in assay [9]. In words: sandwich ELISA in serum; capture M1.3.17, tracer M1.7.24; anti-VEGF/ANG2 antibody 1250 ng/mL.
For assay [10] the target is unchanged. Description: sandwich ELISA in serum; capture M1.3.17, tracer M1.7.24; anti-VEGF/ANG2 antibody 39.0625 ng/mL.
For assay [11] the target is unchanged. In words: sandwich ELISA in serum; capture M1.3.17, tracer M1.7.24; anti-VEGF/ANG2 antibody 156.25 ng/mL.
Assay [12] has the same target. Description: sandwich ELISA in serum; capture M1.3.17, tracer M1.7.24; anti-VEGF/ANG2 antibody 312.5 ng/mL.
For assay [13] the target is unchanged. Description: sandwich ELISA in serum; capture M1.7.10-Bi, tracer M1.7.24-Dig; anti-VEGF/ANG2 antibody 0.01953125 ng/mL.
The target is the same in assay [14]. In words: sandwich ELISA in serum; capture M1.7.10-Bi, tracer M1.7.24-Dig; anti-VEGF/ANG2 antibody 0.625 ng/mL.
For assay [15] the target is unchanged. In words: sandwich ELISA in serum; capture M1.7.10-Bi, tracer M1.7.24-Dig; anti-VEGF/ANG2 antibody 10 ng/mL.
For assay [16], the target named is cytokine (IL-2) antibody conjugate with the mutations P329G, L234A, L235A, I253A, H310A, and H435A. Description: sandwich ELISA in serum; capture anti-IL2 antibody, tracer M1.7.24; conjugate 312.5 ng/mL.
For assay [17] the target is unchanged. In words: sandwich ELISA in serum; capture anti-IL2 antibody, tracer M1.7.24; conjugate 2500 ng/mL.
The target is the same in assay [18]. In words: sandwich ELISA in serum; capture anti-IL2 antibody, tracer M1.7.24; conjugate 78.125 ng/mL.
In assay [19] the target is anti-VEGF/ANG2 antibody (IgG1 subclass with mutations P329G/L234A/L235A/I253A/H310A/H435A) [IgG part: P01857]. In words: sandwich ELISA in serum; capture M1.7.10-Bi, tracer M1.7.24-Dig; anti-VEGF/ANG2 antibody 0.3125 ng/mL.
Assay [20] shares this target. In words: sandwich ELISA in serum; capture M1.7.10-Bi, tracer M1.7.24-Dig; anti-VEGF/ANG2 antibody 0.15625 ng/mL.

Where a chain is given by its changes, count along the chain named.

B1: anti-variant (human) Fc-region antibody M1.3.17 (antibody, V domains shown)
VH: EVKLLESGGGLVQPGGSLKLSCAASGIDFRRYWMNWVRQAPGKGLEWIGEIDPDSSTINYTPSLKDKFIISRDNAKNTMYLQMRKVRSEDTALYYCARPYDYGAWFAYWGQGTLVTVSA
VL: QAVVTQESALTTSPGETVTLTCRSTTGAVTTSNYANWVQEKPDHLFTGLIGGTNKRAPGVPARFSGSLIGDKAALTITGAQTEDEAIYFCALWYSDHWVFGGGTKLTVL
For B1, the signal [OD405 nm] came to 0.987 OD405 nm in assay [1]; 1.6 OD405 nm in assay [2]; 0.047 OD405 nm in assay [3]; 0.314 OD405 nm in assay [4]; 0.05 OD405 nm in [5]; 0.054 OD405 nm in assay [6]. Also, the signal [OD405 nm] in assay [7] turned out to be 0.045 OD405 nm; in assay [8], 1.13 OD405 nm; in [9] it was 1.88 OD405 nm; in assay [10], 0.233 OD405 nm; in [11], 0.418 OD405 nm; in assay [12], 0.658 OD405 nm.

B2: anti-variant (human) Fc-region antibody M1.7.24 (antibody, V domains shown)
VH: B1 VH with I27F, R30S, D52T, M79L, R84I, A97V, Y108S
VL: B1 VL with T25S, D96N
B2: the signal [OD405 nm] in assay [13] is 0.057 OD405 nm; in assay [14], 0.468 OD405 nm; in assay [15], 2.76 OD405 nm; in assay [16], 0.451 OD405 nm; in [17], 2.35 OD405 nm; in [18], 0.152 OD405 nm. In addition, the signal [OD405 nm] in [19] stood at 0.261 OD405 nm; in assay [20], 0.147 OD405 nm.

The record behind these values is US20180346602A1.
